Experimental data reported in US20240034774A1 (Gilead, published 2024).

Columns and labels:
[1] = target: BSA (UniProt P02769 25-607); assay: single-point ELISA, BSA control
[2] = target: gp120 Bal (HIV (Bal)); assay: single-point ELISA at EC50 conc. of A-1
[3] = target: gp120 CAAN (HIV (CAAN)); assay: single-point ELISA at EC50 conc. of A-1
[4] = target: gp120 SHIV SF162 P3 (SHIV SF162 P3); assay: single-point ELISA at EC50 conc. of A-1

| Binder | ELISA A450 [1] [A450] | ELISA A450 [2] [A450] | ELISA A450 [3] [A450] | ELISA A450 [4] [A450] |
| --- | --- | --- | --- | --- |
| 1.13.15-1 (antibody, human IgG1, kappa) heavy: QVQLLQSGAAVTKPGASVRVSCEASGYNIRDYFMHWVRQAPGQGLQWVGWINPKTGQPNNPRQFQGRVSLTRHASWDFDTFSFYMDLKALRSDDTAVYFCARQRSDYWDFDVWGSGTQVTVSSASTKGPSVFPLAPSSKSTSGGTAALGCLVKDYFPEPVTVSWNSGALTSGVHTFPAVLQSSGLYSLSSVVTVPSSSLGTQTYICNVNHKPSNTKVDKKVEPKSCDKTHTCPPCPAPELLAGPDVFLFPPKPKDTLMISRTPEVTCVVVDVSHEDPEVKFNWYVDGVEVHNAKTKPREEQYNSTYRVVSVLTVLHQDWLNGKEYKCKVSNKALPLPEEKTISKAKGQPREPQVYTLPPSREEMTKNQVSLTCLVKGFYPSDIAVEWESNGQPENNYKTTPPVLDSDGSFFLYSKLTVDKSRWQQGNVFSCSVLHEALHSHYTQKSLSLSPGK light: DIQMTQSPSSLSASVGDTVTITCQANGYLNWYQQRRGKAPKLLIYDGSKLERGVPSRFSGRRWGQEYNLTINNLQPEDIATYFCQVYEFFVPGTRLDLKRTVAAPSVFIFPPSDEQLKSGTASVVCLLNNFYPREAKVQWKVDNALQSGNSQESVTEQDSKDSTYSLSSTLTLSKADYEKHKVYACEVTHQGLSSPVTKSFNRGEC | 0.06 | 0.7 | 0.6 | 0.52 |
| 1.18.1-1 (antibody, human IgG1, kappa) heavy: QVQLLQSGAAVTKPGASVRVSCEASGYNIRDYFIHWWRQAPGQGLQWVGWINPKHGQPNNPRQFQGRVSLTRHASWDFDTFSFYMDLKALRSDDTAVYFCARQRSDYWDFDVWGSGTQVTVSSASTKGPSVFPLAPSSKSTSGGTAALGCLVKDYFPEPVTVSWNSGALTSGVHTFPAVLQSSGLYSLSSVVTVPSSSLGTQTYICNVNHKPSNTKVDKKVEPKSCDKTHTCPPCPAPELLAGPDVFLFPPKPKDTLMISRTPEVTCVVVDVSHEDPEVKFNWYVDGVEVHNAKTKPREEQYNSTYRVVSVLTVLHQDWLNGKEYKCKVSNKALPLPEEKTISKAKGQPREPQVYTLPPSREEMTKNQVSLTCLVKGFYPSDIAVEWESNGQPENNYKTTPPVLDSDGSFFLYSKLTVDKSRWQQGNVFSCSVLHEALHSHYTQKSLSLSPGK light: DIQMTQSPSSLSASVGDTVTITCQANGYLNWYQQRRGKAPKLLIYDGSKLERGVPSRFSGRRWGQEYNLTINNLQPEDIATYFCQVYEFVVPGTRLDLKRTVAAPSVFIFPPSDEQLKSGTASVVCLLNNFYPREAKVQWKVDNALQSGNSQESVTEQDSKDSTYSLSSTLTLSKADYEKHKVYACEVTHQGLSSPVTKSFNRGEC | 0.07 | 0.97 | 1.18 | 1.36 |
| 1.16.1-1 (antibody, human IgG1, kappa) heavy: QVQLLQSGAAVTKPGASVRVSCEASGYNIRDYFIHWWRQAPGQGLQWVGWINPKGGQPNNPRQFQGRVSLTRHASWDFDTFSFYMDLKALRSDDTAVYFCARQRSDYWDFDVWGSGTQVTVSSASTKGPSVFPLAPSSKSTSGGTAALGCLVKDYFPEPVTVSWNSGALTSGVHTFPAVLQSSGLYSLSSVVTVPSSSLGTQTYICNVNHKPSNTKVDKKVEPKSCDKTHTCPPCPAPELLAGPDVFLFPPKPKDTLMISRTPEVTCVVVDVSHEDPEVKFNWYVDGVEVHNAKTKPREEQYNSTYRVVSVLTVLHQDWLNGKEYKCKVSNKALPLPEEKTISKAKGQPREPQVYTLPPSREEMTKNQVSLTCLVKGFYPSDIAVEWESNGQPENNYKTTPPVLDSDGSFFLYSKLTVDKSRWQQGNVFSCSVLHEALHSHYTQKSLSLSPGK light: DIQMTQSPSSLSASVGDTVTITCQANGYLNWYQQRRGKAPKLLIYDGSKLERGVPSRFSGRRWGQEYNLTINNLQPEDIATYFCQVYEFVVPGTRLDLKRTVAAPSVFIFPPSDEQLKSGTASVVCLLNNFYPREAKVQWKVDNALQSGNSQESVTEQDSKDSTYSLSSTLTLSKADYEKHKVYACEVTHQGLSSPVTKSFNRGEC | 0.07 | 0.92 | 0.87 | 0.9 |
| 1.17.1-1 (antibody, human IgG1, kappa) heavy: QVQLLQSGAAVTKPGASVRVSCEASGYNIRDYFIHWWRQAPGQGLQWVGWINPKAGQPNNPRQFQGRVSLTRHASWDFDTFSFYMDLKALRSDDTAVYFCARQRSDYWDFDVWGSGTQVTVSSASTKGPSVFPLAPSSKSTSGGTAALGCLVKDYFPEPVTVSWNSGALTSGVHTFPAVLQSSGLYSLSSVVTVPSSSLGTQTYICNVNHKPSNTKVDKKVEPKSCDKTHTCPPCPAPELLAGPDVFLFPPKPKDTLMISRTPEVTCVVVDVSHEDPEVKFNWYVDGVEVHNAKTKPREEQYNSTYRVVSVLTVLHQDWLNGKEYKCKVSNKALPLPEEKTISKAKGQPREPQVYTLPPSREEMTKNQVSLTCLVKGFYPSDIAVEWESNGQPENNYKTTPPVLDSDGSFFLYSKLTVDKSRWQQGNVFSCSVLHEALHSHYTQKSLSLSPGK light: DIQMTQSPSSLSASVGDTVTITCQANGYLNWYQQRRGKAPKLLIYDGSKLERGVPSRFSGRRWGQEYNLTINNLQPEDIATYFCQVYEFVVPGTRLDLKRTVAAPSVFIFPPSDEQLKSGTASVVCLLNNFYPREAKVQWKVDNALQSGNSQESVTEQDSKDSTYSLSSTLTLSKADYEKHKVYACEVTHQGLSSPVTKSFNRGEC | 0.06 | 0.84 | 0.7 | 0.31 |
| 1.14.17-1 (antibody, human IgG1, kappa, V domains shown) VH: QVQLLQSGAAVTKPGASVRVSCEASGYNIRDYFMHWVRQAPGQGLQWVGWINPKTGQPNNPRQFQGRVSLTRHASWDFDTFSAYMDLKALRSDDTAVYFCARQRSDYWDFDVWGSGTQVTVSS VL: DIQMTQSPSSLSASVGDTVTITCQANGYLNWYQQRRGKAPKLLIYDGSKLERGVPSRFSGRRWGQEYNLTINNLQPEDIATYFCQVYEFFGPGTRLDLKR | 0.1 | 0.89 | 0.43 | 0.24 |
| 1.13.17-1 (antibody, human IgG1, kappa, V domains shown) VH: QVQLLQSGAAVTKPGASVRVSCEASGYNIRDYFMHWVRQAPGQGLQWVGWINPKTGQPNNPRQFQGRVSLTRHASWDFDTFSFYMDLKALRSDDTAVYFCARQRSDYWDFDVWGSGTQVTVSS VL: DIQMTQSPSSLSASVGDTVTITCQANGYLNWYQQRRGKAPKLLIYDGSKLERGVPSRFSGRRWGQEYNLTINNLQPEDIATYFCQVYEFFGPGTRLDLKR | 0.06 | 1.02 | 0.78 | 0.69 |
| 1.19.1-1 (antibody, human IgG1, kappa) heavy: QVQLLQSGAAVTKPGASVRVSCEASGYNIRDYFIHWWRQAPGQGLQWVGWINPKTGQPNNPRQFQGRVTLTRHASWDFDTFSFYMDLKALRSDDTAVYFCARQRSDYWDFDVWGSGTQVTVSSASTKGPSVFPLAPSSKSTSGGTAALGCLVKDYFPEPVTVSWNSGALTSGVHTFPAVLQSSGLYSLSSVVTVPSSSLGTQTYICNVNHKPSNTKVDKKVEPKSCDKTHTCPPCPAPELLAGPDVFLFPPKPKDTLMISRTPEVTCVVVDVSHEDPEVKFNWYVDGVEVHNAKTKPREEQYNSTYRVVSVLTVLHQDWLNGKEYKCKVSNKALPLPEEKTISKAKGQPREPQVYTLPPSREEMTKNQVSLTCLVKGFYPSDIAVEWESNGQPENNYKTTPPVLDSDGSFFLYSKLTVDKSRWQQGNVFSCSVLHEALHSHYTQKSLSLSPGK light: DIQMTQSPSSLSASVGDTVTITCQANGYLNWYQQRRGKAPKLLIYDGSKLERGVPSRFSGRRWGQEYNLTINNLQPEDIATYFCQVYEFVVPGTRLDLKRTVAAPSVFIFPPSDEQLKSGTASVVCLLNNFYPREAKVQWKVDNALQSGNSQESVTEQDSKDSTYSLSSTLTLSKADYEKHKVYACEVTHQGLSSPVTKSFNRGEC | 0.06 | 0.85 | 0.93 | 0.96 |
| 1.20.1-1 (antibody, human IgG1, kappa) heavy: QVQLLQSGAAVTKPGASVRVSCEASGYNIRDYFIHWWRQAPGQGLQWVGWINPKTGQPNNPRQFQGRVTMTRHASWDFDTFSFYMDLKALRSDDTAVYFCARQRSDYWDFDVWGSGTQVTVSSASTKGPSVFPLAPSSKSTSGGTAALGCLVKDYFPEPVTVSWNSGALTSGVHTFPAVLQSSGLYSLSSVVTVPSSSLGTQTYICNVNHKPSNTKVDKKVEPKSCDKTHTCPPCPAPELLAGPDVFLFPPKPKDTLMISRTPEVTCVVVDVSHEDPEVKFNWYVDGVEVHNAKTKPREEQYNSTYRVVSVLTVLHQDWLNGKEYKCKVSNKALPLPEEKTISKAKGQPREPQVYTLPPSREEMTKNQVSLTCLVKGFYPSDIAVEWESNGQPENNYKTTPPVLDSDGSFFLYSKLTVDKSRWQQGNVFSCSVLHEALHSHYTQKSLSLSPGK light: DIQMTQSPSSLSASVGDTVTITCQANGYLNWYQQRRGKAPKLLIYDGSKLERGVPSRFSGRRWGQEYNLTINNLQPEDIATYFCQVYEFVVPGTRLDLKRTVAAPSVFIFPPSDEQLKSGTASVVCLLNNFYPREAKVQWKVDNALQSGNSQESVTEQDSKDSTYSLSSTLTLSKADYEKHKVYACEVTHQGLSSPVTKSFNRGEC | 0.06 | 0.89 | 0.8 | 0.91 |
| 1.15.1-1 (antibody, human IgG1, kappa) heavy: QVQLLQSGAAVTKPGASVRVSCEASGYNIRDYFIHWWRQAPGQGLQWVGWINPKWGQPNNPRQFQGRVSLTRHASWDFDTFSFYMDLKALRSDDTAVYFCARQRSDYWDFDVWGSGTQVTVSSASTKGPSVFPLAPSSKSTSGGTAALGCLVKDYFPEPVTVSWNSGALTSGVHTFPAVLQSSGLYSLSSVVTVPSSSLGTQTYICNVNHKPSNTKVDKKVEPKSCDKTHTCPPCPAPELLAGPDVFLFPPKPKDTLMISRTPEVTCVVVDVSHEDPEVKFNWYVDGVEVHNAKTKPREEQYNSTYRVVSVLTVLHQDWLNGKEYKCKVSNKALPLPEEKTISKAKGQPREPQVYTLPPSREEMTKNQVSLTCLVKGFYPSDIAVEWESNGQPENNYKTTPPVLDSDGSFFLYSKLTVDKSRWQQGNVFSCSVLHEALHSHYTQKSLSLSPGK light: DIQMTQSPSSLSASVGDTVTITCQANGYLNWYQQRRGKAPKLLIYDGSKLERGVPSRFSGRRWGQEYNLTINNLQPEDIATYFCQVYEFVVPGTRLDLKRTVAAPSVFIFPPSDEQLKSGTASVVCLLNNFYPREAKVQWKVDNALQSGNSQESVTEQDSKDSTYSLSSTLTLSKADYEKHKVYACEVTHQGLSSPVTKSFNRGEC | 0.06 | 0.87 | 1.38 | 1.24 |
